The values that follow come from paper PMC3338718, “Characterization of a Novel ArsR-Like Regulator Encoded by Rv2034 in Mycobacterium tuberculosis”.

The target of data set [1] is T1, Rv2034C61A C61A (Mycobacterium tuberculosis) (UniProt O53478).
T1 sequence: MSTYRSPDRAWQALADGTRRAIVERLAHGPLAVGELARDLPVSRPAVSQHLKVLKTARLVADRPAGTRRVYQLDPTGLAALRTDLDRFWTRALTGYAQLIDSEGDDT
Put plainly: EMSA.

Data set [2] addresses T2, Rv2034AE A32G;E35G (Mycobacterium tuberculosis) (UniProt O53478).
T2 sequence: T1 sequence with A32G, E35G, A61C
Kind of data set: EMSA. For orientation: In EMSA bound probe runs differently from free probe, usually more slowly.

In data set [3] the target is T3, Rv2034 (ArsR family regulator) (Mycobacterium tuberculosis, UniProt O53478 1-107).
T3 sequence: T1 sequence with A61C
Kind of data set: EMSA; 0.1-1.2 uM protein. The conditions noted are these: protein: recombinant, tags: N-terminal His6 (pET28a), chain copies: 2, label: 5' label (32P or FITC).

For data set [4], the target named is T3, Rv2034 (ArsR family regulator). Put plainly: EMSA; up to 1.2 uM protein. Particulars: protein: recombinant, tags: N-terminal His6 (pET28a), chain copies: 2, label: 5' label (32P or FITC).

Residue numbers refer to the chain shown, from its start.

“AATTTCTAGAGCCTGCGGCAAGCACGTCGGTTCCATAGCGATCCAGCACGCCGCAATACTAGGGAGCCTCTCTGCCGGTCATCGCCGCGACGCGCCGCATGGGTTCTCGGAAAATGCTTGTACCAGTCGACTTTCCGGCGGGCCAACGTCGCCAACCGATACTCGGCTCCAACGCCATGGGTGACGGGATGCCCGGATCACGTGTCACACCACCCGCGCACCCTTGCGGAAGAATATCCGTAAGTCTAAACTTACGGTTCGAATTCCCGG (double strand) [Rv2034p promoter]”: the binding entry in data set [1] and in data set [2] was “no binding” each time.

B1: Rv2034BSmu3 (dsDNA)
DNA 1: GGAAGAATATCCGTAAGTCTGATAAAACTTACGGTTCGTGTCCA
DNA 2: TGGACACGAACCGTAAGTTTTATCAGACTTACGGATATTCTTCC
Turning to B1, the binding result in data set [3] (blunt) was “binds”.

B2: Rv2034BSmu4 (dsDNA)
DNA 1: AGAGTTGATACCGTAAGTTAGCACTTACGGACTTAAGGTT
DNA 2: AACCTTAAGTCCGTAAGTGCTAACTTACGGTATCAACTCT
As for B2, in data set [3], the binding result is “binds”.

B3: Rv2034BSmu2 (dsDNA)
DNA 1: GGAAGAATATGGCATTCACTAAACTGCATGTTCGTGTCCA
DNA 2: TGGACACGAACATGCAGTTTAGTGAATGCCATATTCTTCC
For B3, the binding result in data set [4] (blunt) was “no binding”.

B4: Rv2034BSmu5 (dsDNA)
DNA 1: B3 DNA 1 with A23C, C24A, T25G, G30A
DNA 2: B3 DNA 2 with C11T, A16C, G17T, T18G
As for B4, the binding result in data set [4] is recorded as “no binding”.
